Laboratory results: patent US8227212B2, “Cell that expresses a sulfatase and a formylglycine generating enzyme” (Shire Human Genetic Therapies, Inc., priority 2003, dated 2012)

How the values were obtained:
[1] = Biodistribution study of IV FGE-activated GALNS in ICR (normal) mice; format: in vivo; details: single IV injection of 5 mg/kg, two hours after injection
Experimental: Four-week-old ICR (normal) mice were given a single IV injection of 5 mg/kg FGE-activated GALNS. Liver, femur (bone), heart, kidney and spleen were collected two hours after injection and prepared for histological examination. A monoclonal anti-human GALNS antibody was used to detect the presence of injected GALNS in the various tissues. […] Moreover, GALNS was readily observed in all tissues examined using a horseradish-peroxidase reporter system, […].

MKI mice = experiment: Pharmacodynamic study in MKI mice (GALNS deficient, Morquio Knock-In); format: in vivo; details: weekly IV 2 mg/kg over 16 weeks
From the text: The primary cause of skeletal pathology in Morquio patients is keratan sulfate (KS) accumulation in epiphyseal disk (growth plate) chondrocytes due to deficiency of the lysosomal sulfatase, GALNS. The primary objective of in vivo research studies was to determine whether intravenously (IV) administered FGE-activated GALNS was able to penetrate chondrocytes of the growth plate as well as other appropriate cell types in normal mice.
Four-week-old MKI or wild-type mice were given weekly IV injections (n=8 per group) through 20 weeks of age. Each weekly injection consisted of either 2 mg/kg FGE-activated GALNS or vehicle control (no injection for wild-type mice). All mice were sacrificed for histological examination at 20 weeks of age and stained using the following methods: hematoxylin and eosin for cellular morphology, alcian blue for detection of GAGs.

ARSA, ARSC and ARSE = experiment: Co-expression of FGE (SUMF1) and sulfatase cDNAs in cell lines, sulfatase activities; format: cell-based, human; details: co-transfection with ARSA, ARSC and ARSE cDNAs in various cell lines
From the text: To test the effect of FGE (SUMF1) on additional sulfatase activities in normal cells we overexpressed ARSA (SEQ ID NO:14), ARSC (SEQ ID NO:18) and ARSE (SEQ ID NO:22) cDNAs in various cell lines with and without co-transfection of the FGE (SUMF1) cDNA and measured sulfatase activities.
To test for functional conservation of the FGE (SUMF1) gene during evolution we overexpressed ARSA, ARSC and ARSE cDNAs in various cell lines with and without co-transfection of the […] and measured sulfatase activities.

Molecule	GALNS delivery to bone growth plate chondrocytes (FITC reporter system) [1]	presence of injected GALNS in tissues (monoclonal anti-human GALNS antibody) ([1]; liver, femur (bone), heart, kidney and spleen)	chondrocytes in the calcification zone of the growth plate (MKI mice)	vacuolized chondrocytes of the hypertrophic and proliferating zones of the growth plate (MKI mice)	clearance of accumulated GAG (alcian blue staining) (MKI mice; soft tissues (liver, heart, kidney and spleen))	activity of FGE homologs on overexpressed human sulfatases (ARSA, ARSC and ARSE)
FGE-activated GALNS: N-Acetylgalactosamine 6-Sulfatase (lysosomal sulfatase) activated by FGE, for enzyme replacement therapy of Morquio disease MPS IVA (protein) APQPPNILLLLMDDMGWGDLGVYGEPSRETPNLDRMAAEGLLFPNFYSANPLCSPSRAALLTGRLPIRNGFYTTNAHARNAYTPQEIVGGIPDSEQLLPELLKKAGYVSKIVGKWHLGHRPQFHPLKHGFDEWFGSPNCHFGPYDNKARPNIPVYRDWEMVGRYYEEFPINLKTGEANLTQIYLQEALDFIKRQARHHPFFLYWAVDATHAPVYASKPFLGTSQRGRYGDAVREIDDSIGKILELLQDLHVADNTFVFFTSDNGAALISAPEQGGSNGPFLCGKQTTFEGGMREPALAWWPGHVTAGQVSHQLGSIMDLFTTSLALAGLTPPSDRAIDGLNLLPTLLQGRLMDRPIFYYRGDTLMAATLGQHKAHFWTWTNSWENFRQGIDFCPGQNVSGVTTHNLEDHTKLPLIFHLGRDPGERFPLSFASAEYQEALSRITSVVQQHQEALVPAQPQLNVCNWAVMNWAPPGCEKLGKCLTPPESIPKKCLWSH	observed in all growth plate sections examined	detected in all tissues examined	reduction of vacuolization	unaffected	reduced or absent alcian blue staining	–
murine FGE (SUMF1): murine FGE (SUMF1) gene, mouse FGE ortholog (SEQ ID NO:49) (nucleic acid, listed as Mus musculus) DNA: ATGGTCCCCATTCCTGCTGGAGTATTCACAATGGGCACTGATGATCCTCAGATCAGGCAGGATGGAGAAGCCCCTGCCAGGAGAGTCACTGTTGATGGCTTTTACATGGACGCCTATGAAGTCAGCAATGCGGATTTTGAGAAGTTTGTGAACTCGACTGGCTATTTGACAGAGGCTGAGAAGTTTGGAGACTCTTTCGTCTTTGAAGGCATGTTGAGCGAGCAAGTGAAAACGCATATCCACCAGGCAGTTGCAGCTGCTCCATGGTGGTTGCCTGTCAAGGGAGCTAATTGGAGACACCCAGAGGGTCCGGACTCCAGTATTCTGCACAGGTCAAATCATCCGGTTCTCCATGTTTCCTGGAACGATGCTGTTGCCTACTGCACATGGGCGGGCAAGAGGTTGCCTACTGAGGCAGAGTGGGAATACAGCTGTAGAGGAGGCCTGCAGAACAGGCTTTTCCCCTGGGGCAACAAACTGCAGCCCAAAGGACAGCATTATGCCAACATCTGGCAGGGCAAGTTTCCTGTGAGCAACACTGGCGAGGATGGCTTCCAAGGAACTGCCCCCGTTGATGCCTTTCCTCCCAATGGCTATGGCTTATACAACATAGTGGGGAATGTGTGGGAGTGGACCTCAGACTGGTGGACTGTTCACCATTCTGTTGAGGAAACGTTCAACCCAAAGGGTCCCACTTCTGGGAAAGACCGAGTGAAGAAGGGTGGATCCTACATGTGCCATAAGTCCTATTGCTATAGGTACCGCTGTGCAGCTCGAAGCCAGAACACACCAGATAGCTCTGCATCCAACCTGGGATTCCGATGTGCAGCCGACCACCTGCCCACCGCAGACTGA	–	–	–	–	–	active on all three human sulfatases
Drosophila FGE (SUMF1): Drosophila FGE (SUMF1) gene, fruitfly FGE ortholog (SEQ ID NO:51) (nucleic acid, Drosophila melanogaster) DNA: ATGACAACAATTATATTAGTCCTCTTTATTTGGATAGTTTTATTCAATGACGTATCCAGCGACTGTGGCTGCCAAAAGCTCGACCGGAAGGCCCCGGATATGCCGTCCATTTCCGGACAAGTGTGCCAGCAACGAGCACAGGGTGCACACAGCCACTACCGGGATTACTATGGCGAACTGGAGCCAAATATTGCGGACATGTCACTGCTTCCGGGAGGCACGGTTTACATGGGTACTGACAAACCGCACTTTCCGGCCGACCGCGAGGCTCCGGAACGGCAGGTGAAGCTGAATGACTTCTACATCGACAAGTATGAGGTTTCCAACGAAGCCTTTGCGAAGTTTGTTCTGCACACTAACTACACCACGGAGGCTGAGCGATATGGCGACAGTTTTCTGTTTAAGAGCCTTTTGAGCCCATTGGAGCAGAAGAACCTAGAGGACTTCCGAGTGGCGAGCGCTGTCTGGTGGTACAAAGTGGCCGGCGTGAACTGGCGACATCCAAATGGCGTGGACAGCGATATAGACCACTTAGGCCGACACCCGGTAGTGCACGTATCGTGGCGCGACGCTGTGGAGTACTGTAAGTGGGCCGGCAAGCGGTTGCCCAGCGAGGCGGAGTGGGAGGCGGCTTGCAGGGGCGGCAAGGAGCGCAAACTGTTTCCCTGGGGCAACAAGCTGATGCCAAGGAATGAACATTGGCTGAACATCTGGCAGGGAGACTTTCCCGATGGCAACCTGGCTGAAGATGGGTTTGAGTACACCAGCCCCGTGGATGCCTTCCGACAGAATATTTACGACCTGCACAACATGGTGGGCAACGTCTGGGAGTGGACGGCAGATCTGTGGGACGTAAATGACGTTAGCGATAATCCAAATCGGGTCAAGAAGGGCGGTTCTTATCTGTGTCACAAGTCCTACTGCTACAGGTACAGGTGCGCGGCACGCTCGCAGAACACAGAAGACAGTTCAGCCGGTAACCTGGGTTTTCGGTGCGCCAAGAATGCGTGA	–	–	–	–	–	less efficient
